Earlier results in patent US11358994B2, “Fatty acid modified human epidermal growth factor” (Saint Louis University, priority 2017, dated 2022).

Conditions: species not stated

## hEGF: 6 kD protein made of 53 amino acids (SEQ ID NO: 1)
  half-life in vivo: ~2 min
